Measured values reported in US11402384B2 (Duke University, priority 2015, dated 2022).
Read-outs that look alike come from different tables or passages of the source.

Test: Ratiometric fluorescence glucose titration of fluorescent conjugates
Assay type: binding
Design: key to Shape (fluorescence response to glucose) / Change (fluorescence response to glucose): m, monochromatic; d, dichromatic (i.e. spectral shape change); 0, no change
Settings: for Shape (fluorescence response to glucose) / Kd: tsGBP2 cysteine scan; for Kd: ratiometric fit at λ1 and λ2
Method in brief: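 Single-cysteine glucose-binding protein mutants labelled site-specifically with thiol-reactive environmentally sensitive fluorophores; emission spectra recorded during glucose titration to detect ligand-mediated intensity and spectral-shape changes for ratiometric read-out. Temperature- and ligand-dependent fluorescence landscapes acquired in 1K steps; binding fitted to single-site fractional saturation.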

Molecule	Shape (fluorescence response to glucose) (Badan conjugate)	Shape (fluorescence response to glucose) (Acrylodan conjugate)	further results
H348 Badan: tsGBP2_C348 (SEQ ID NO: 35) Badan conjugate (conjugate, Badan conjugate; tsGBP2_C348 (348C substitution mutant with signal peptide replaced with M and a GGSHHHHHH at C-terminus)) MKLEIFSWWAGDEGPALEALIRLYKQKYPGVEVINATVTGGAGVNAKAVLKTRMLGGDPPDTFQVHAGQELIGTWVVADRMEDLTSLFRQEGWLQAFPKGLIDLLSYKGGIWSVPVNIHRSNVMWYIPAKLKEWGVTPPKTWAEFLATAQTLKRKGLEAPLALGENWTQQHLWESVALATLGADGWNNLWSGKLKFTDPKAVAVWETFGKVLDAANKDAAGLSWQQAVDRVVQGKAAFNIMGDWAAGYMSTTLKLKPGTDFAWTPSPGTSGIFMMLSDSFGLPKGAKNRQNAINWLKLVGSKEGQDTFNPLKGSIAARLDSDPAKYNAYGQSAMKDWKSNRIVGSLVCGAVAPESFMSQFGTVMEIFLQSRNPQAAANAAQAIANQVGLGRGGSHHHHHH	d		Kd (Badan conjugate, read-out: Kd ^appKd): ~4.3 mM; Kd (Badan conjugate, read-out: Kd ^trueKd): ~5.2 mM
H348 Acrylodan: tsGBP2_C348 (SEQ ID NO: 35) Acrylodan conjugate (conjugate, Acrylodan conjugate; tsGBP2_C348 (348C substitution mutant with signal peptide replaced with M and a GGSHHHHHH at C-terminus)) MKLEIFSWWAGDEGPALEALIRLYKQKYPGVEVINATVTGGAGVNAKAVLKTRMLGGDPPDTFQVHAGQELIGTWVVADRMEDLTSLFRQEGWLQAFPKGLIDLLSYKGGIWSVPVNIHRSNVMWYIPAKLKEWGVTPPKTWAEFLATAQTLKRKGLEAPLALGENWTQQHLWESVALATLGADGWNNLWSGKLKFTDPKAVAVWETFGKVLDAANKDAAGLSWQQAVDRVVQGKAAFNIMGDWAAGYMSTTLKLKPGTDFAWTPSPGTSGIFMMLSDSFGLPKGAKNRQNAINWLKLVGSKEGQDTFNPLKGSIAARLDSDPAKYNAYGQSAMKDWKSNRIVGSLVCGAVAPESFMSQFGTVMEIFLQSRNPQAAANAAQAIANQVGLGRGGSHHHHHH		m	Kd (Acrylodan conjugate, read-out: Kd ^appKd): ~1.3 mM
W9C Badan: tsGBP2_C9 (SEQ ID NO: 18) Badan conjugate (conjugate, Badan conjugate; tsGBP2_C9 (9C substitution mutant with signal peptide replaced with M and a GGSHHHHHH at C-terminus)) MKLEIFSWCAGDEGPALEALIRLYKQKYPGVEVINATVTGGAGVNAKAVLKTRMLGGDPPDTFQVHAGQELIGTWVVADRMEDLTSLFRQEGWLQAFPKGLIDLLSYKGGIWSVPVNIHRSNVMWYIPAKLKEWGVTPPKTWAEFLATAQTLKRKGLEAPLALGENWTQQHLWESVALATLGADGWNNLWSGKLKFTDPKAVAVWETFGKVLDAANKDAAGLSWQQAVDRVVQGKAAFNIMGDWAAGYMSTTLKLKPGTDFAWTPSPGTSGIFMMLSDSFGLPKGAKNRQNAINWLKLVGSKEGQDTFNPLKGSIAARLDSDPAKYNAYGQSAMKDWKSNRIVGSLVHGAVAPESFMSQFGTVMEIFLQSRNPQAAANAAQAIANQVGLGRGGSHHHHHH	m		
M357 Acrylodan: tsGBP2_C357 (SEQ ID NO: 36) Acrylodan conjugate (conjugate, Acrylodan conjugate; tsGBP2_C357 (357C substitution mutant with signal peptide replaced with M and a GGSHHHHHH at C-terminus)) MKLEIFSWWAGDEGPALEALIRLYKQKYPGVEVINATVTGGAGVNAKAVLKTRMLGGDPPDTFQVHAGQELIGTWVVADRMEDLTSLFRQEGWLQAFPKGLIDLLSYKGGIWSVPVNIHRSNVMWYIPAKLKEWGVTPPKTWAEFLATAQTLKRKGLEAPLALGENWTQQHLWESVALATLGADGWNNLWSGKLKFTDPKAVAVWETFGKVLDAANKDAAGLSWQQAVDRVVQGKAAFNIMGDWAAGYMSTTLKLKPGTDFAWTPSPGTSGIFMMLSDSFGLPKGAKNRQNAINWLKLVGSKEGQDTFNPLKGSIAARLDSDPAKYNAYGQSAMKDWKSNRIVGSLVHGAVAPESFCSQFGTVMEIFLQSRNPQAAANAAQAIANQVGLGRGGSHHHHHH		0	
W8C Acrylodan: tsGBP2_C8 (SEQ ID NO: 17) Acrylodan conjugate (conjugate, Acrylodan conjugate; tsGBP2_C8 (8C substitution mutant with signal peptide replaced with M and a GGSHHHHHH at C-terminus)) MKLEIFSCWAGDEGPALEALIRLYKQKYPGVEVINATVTGGAGVNAKAVLKTRMLGGDPPDTFQVHAGQELIGTWVVADRMEDLTSLFRQEGWLQAFPKGLIDLLSYKGGIWSVPVNIHRSNVMWYIPAKLKEWGVTPPKTWAEFLATAQTLKRKGLEAPLALGENWTQQHLWESVALATLGADGWNNLWSGKLKFTDPKAVAVWETFGKVLDAANKDAAGLSWQQAVDRVVQGKAAFNIMGDWAAGYMSTTLKLKPGTDFAWTPSPGTSGIFMMLSDSFGLPKGAKNRQNAINWLKLVGSKEGQDTFNPLKGSIAARLDSDPAKYNAYGQSAMKDWKSNRIVGSLVHGAVAPESFMSQFGTVMEIFLQSRNPQAAANAAQAIANQVGLGRGGSHHHHHH		m	
W8C Badan: tsGBP2_C8 (SEQ ID NO: 17) Badan conjugate (conjugate, Badan conjugate; tsGBP2_C8 (8C substitution mutant with signal peptide replaced with M and a GGSHHHHHH at C-terminus)) MKLEIFSCWAGDEGPALEALIRLYKQKYPGVEVINATVTGGAGVNAKAVLKTRMLGGDPPDTFQVHAGQELIGTWVVADRMEDLTSLFRQEGWLQAFPKGLIDLLSYKGGIWSVPVNIHRSNVMWYIPAKLKEWGVTPPKTWAEFLATAQTLKRKGLEAPLALGENWTQQHLWESVALATLGADGWNNLWSGKLKFTDPKAVAVWETFGKVLDAANKDAAGLSWQQAVDRVVQGKAAFNIMGDWAAGYMSTTLKLKPGTDFAWTPSPGTSGIFMMLSDSFGLPKGAKNRQNAINWLKLVGSKEGQDTFNPLKGSIAARLDSDPAKYNAYGQSAMKDWKSNRIVGSLVHGAVAPESFMSQFGTVMEIFLQSRNPQAAANAAQAIANQVGLGRGGSHHHHHH	m		
W8F A: tsGBP2.13C.W8F (SEQ ID NO: 37) Acrylodan conjugate (conjugate, Acrylodan conjugate; tsGBP2.13C.W8F (13C, 8F double substitution mutant)) MKLEIFSFWAGDCGPALEALIRLYKQKYPGVEVINATVTGGAGVNAKAVLKTRMLGGDPPDTFQVHAGQELIGTWVVADRMEDLTSLFRQEGWLQAFPKGLIDLLSYKGGIWSVPVNIHRSNVMWYIPAKLKEWGVTPPKTWAEFLATAQTLKRKGLEAPLALGENWTQQHLWESVALATLGADGWNNLWSGKLKFTDPKAVAVWETFGKVLDAANKDAAGLSWQQAVDRVVQGKAAFNIMGDWAAGYMSTTLKLKPGTDFAWTPSPGTSGIFMMLSDSFGLPKGAKNRQNAINWLKLVGSKEGQDTFNPLKGSIAARLDSDPAKYNAYGQSAMKDWKSNRIVGSLVHGAVAPESFMSQFGTVMEIFLQSRNPQAAANAAQAIANQVGLGRGGSHHHHHH			Change (fluorescence response to glucose) (tsGBP 13C affinity mutants, Acrylodan or Badan conjugates): 0
W9C Acrylodan: tsGBP2_C9 (SEQ ID NO: 18) Acrylodan conjugate (conjugate, Acrylodan conjugate; tsGBP2_C9 (9C substitution mutant with signal peptide replaced with M and a GGSHHHHHH at C-terminus)) MKLEIFSWCAGDEGPALEALIRLYKQKYPGVEVINATVTGGAGVNAKAVLKTRMLGGDPPDTFQVHAGQELIGTWVVADRMEDLTSLFRQEGWLQAFPKGLIDLLSYKGGIWSVPVNIHRSNVMWYIPAKLKEWGVTPPKTWAEFLATAQTLKRKGLEAPLALGENWTQQHLWESVALATLGADGWNNLWSGKLKFTDPKAVAVWETFGKVLDAANKDAAGLSWQQAVDRVVQGKAAFNIMGDWAAGYMSTTLKLKPGTDFAWTPSPGTSGIFMMLSDSFGLPKGAKNRQNAINWLKLVGSKEGQDTFNPLKGSIAARLDSDPAKYNAYGQSAMKDWKSNRIVGSLVHGAVAPESFMSQFGTVMEIFLQSRNPQAAANAAQAIANQVGLGRGGSHHHHHH		m	
M357 Badan: tsGBP2_C357 (SEQ ID NO: 36) Badan conjugate (conjugate, Badan conjugate; tsGBP2_C357 (357C substitution mutant with signal peptide replaced with M and a GGSHHHHHH at C-terminus)) MKLEIFSWWAGDEGPALEALIRLYKQKYPGVEVINATVTGGAGVNAKAVLKTRMLGGDPPDTFQVHAGQELIGTWVVADRMEDLTSLFRQEGWLQAFPKGLIDLLSYKGGIWSVPVNIHRSNVMWYIPAKLKEWGVTPPKTWAEFLATAQTLKRKGLEAPLALGENWTQQHLWESVALATLGADGWNNLWSGKLKFTDPKAVAVWETFGKVLDAANKDAAGLSWQQAVDRVVQGKAAFNIMGDWAAGYMSTTLKLKPGTDFAWTPSPGTSGIFMMLSDSFGLPKGAKNRQNAINWLKLVGSKEGQDTFNPLKGSIAARLDSDPAKYNAYGQSAMKDWKSNRIVGSLVHGAVAPESFCSQFGTVMEIFLQSRNPQAAANAAQAIANQVGLGRGGSHHHHHH	m		
